Changes are numbered by the printed parent chain.
B1: Mouse 19D07 (antibody, V domains shown)
VH: EVKLVESGGGLVKPGGSLKLSCAASGFAFSSYDMSWVRQIPEKRLEWVATITSGGGYTYSADSVKGRFTISRDNARNTLYLQMSSLRSEDTAVYYCARQNWVVGLAYWGQGTLVTVSA
VL: DIVMSQSPSSLSVSAGDKVTMSCKSSQSLLNSGNQKNYLAWYQQKPWQPPKLLIYGASTRESGVPDRFTGSGSGTDFTLTISSVQAEDLAVYYCQNDYSYPYTFGGGTKLEIK
B2: Chimeric 19D07 (antibody, V domains shown)
VH: B1 VH
VL: DIVMSQSPSSLSVSAGDKVTMSCKSSQSLLNSGNQKNYLAWYQQKPWQPPKLLIYGASTRESGVPDRFTGSGSGTDFTLTISSVQAEDLAVYYCQNDYSYPYTFGGGTKLEIKR
B3: Mouse 11E12 (antibody, V domains shown)
VH: QVQLQQSGAELVKPGASVKLSCKASGYTFKYYDINWVRQRPEQGLEWIGWIFPGDGGTKYNETFKGKATLTTDKSSSTAYMQLSRLTSEDSAVYFCARGGTSVIRDAMDYWGQGTSVTVSS
VL: DIVLTQSPASLAVSLGQRATISCRASESVDNYGISFMHWYQQKPGQPPKLLIYRASNLESGIPARFSGSGSRTDFTLTINPVETDDVATYYCQQSNKDPLTFGAGTKLELK
B4: Chimeric 11E12 (antibody, V domains shown)
VH: B3 VH
VL: DIVLTQSPASLAVSLGQRATISCRASESVDNYGISFMHWYQQKPGQPPKLLIYRASNLESGIPARFSGSGSRTDFTLTINPVETDDVATYYCQQSNKDPLTFGAGTKLELKR
B5: Caninized 19D07 (antibody, V domains shown)
VH: EVQLVESGGDLVKPGGSLRLSCVASGFTFSSYDMSWVRQAPGKGLQWVATITSGGGYTYSADSVKGRFTISRDNARNTLYLQMNSLRSEDTAVYYCARQNWVVGLAYWGQGTLVTVSS
VL: EIVMTQSPASLSLSQEEKVTITCKSSQSLLNSGNQKNYLAWYQQKPGQAPKLLIYGASTRESGVPSRFSGSGSGTDFSFTISSLEPEDVAVYYCQNDYSYPYTFGQGTKLEIKR
B6: Caninized 34D03 (antibody, V domains shown)
VH: EVQLVESGGDLVKPGGSLRLSCVASGFTFSNYGMSWVRQAPGKGLQWVATISYGGSYTYYPDNIKGRFTISRDNAKNTLYLQMNSLRAEDTAMYYCVRGYGYDTMDYWGQGTLVTVSS
VL: EIVMTQSPASLSLSQEEKVTITCKASQSVSFAGTGLMHWYQQKPGQAPKLLIYRASNLEAGVPSRFSGSGSGTDFSFTISSLEPEDVAVYYCQQSREYPWTFGQGTKLEIKR
B7: Felinized 34D03 (antibody, V domains shown)
VH: B6 VH with E1D, S21T, F29Y, R87K, A88T, M93T
VL: EIQMTQSPSSLSASPGDRVTITCKASQSVSFAGTGLMHWYQQKPGKVPKLLIYRASNLEAGVPSRFSGSGSGTDFTLTISSLEPEDAATYYCQQSREYPWTFGQGTKLEIKR
B8: Mouse 34D03 (antibody, V domains shown)
VH: EVQLVESGGDLVKPGGSLKLSCAASGFSFSNYGMSWVRQTPDKRLEWVATISYGGSYTYYPDNIKGRFTISRDNAKNTLYLQMSSLKSEDTAMYYCVRGYGYDTMDYWGQGTSVTVSS
VL: DILLTQSPASLAVSLGQRAIISCKASQSVSFAGTGLMHWYQQKPGQQPKLLIYRASNLEAGVPTRFSGSGSRTDFTLNIHPVEEEDAATYFCQQSREYPWTFGGGTKLEIK
B9: Chimeric 34D03 (antibody, V domains shown)
VH: B8 VH
VL: DILLTQSPASLAVSLGQRAIISCKASQSVSFAGTGLMHWYQQKPGQQPKLLIYRASNLEAGVPTRFSGSGSRTDFTLNIHPVEEEDAATYFCQQSREYPWTFGGGTKLEIKR
B10: 11E12 Heterochimera (antibody, V domains shown)
VH: EVQLVQSGAEVKKPGASVKVSCKTSGYTFKYYDINWVRQAPGAGLDWMGWIFPGDGGTKYNETFKGRVTLTADTSTSTAYMELSSLRAGDIAVYYCARGGTSVIRDAMDYWGQGTLVTVSS
VL: B4 VL
B11: Caninized 11E12 (antibody, V domains shown)
VH: B10 VH
VL: DIVMTQTPLSLSVSPGEPASISCRASESVDNYGISFMHWFQQKPGQSPQRLIYRASNLESGVPDRFSGSGSGTDFTLRISRVEADDAGVYYCQQSNKDPLTFGAGTKLEIKR
B12: Caninized 11E12 13 (antibody, V domains shown)
VH: B10 VH
VL: B11 VL with R50L
B13: Caninized 11E12 FW2 (antibody, V domains shown)
VH: B10 VH
VL: B11 VL with F40Y, S47P, Q49K, R50L

Assays:
[1] = target: Recombinant canine IL-31 produced in CHO cells (canine); test: SPR (Biacore), IL-31 amine-coupled to the chip, mAb in solution, 1:1 fit
[2] = target: Recombinant canine IL-31 produced in CHO cells (canine); test: cell-based or functional assay
[3] = target: Recombinant canine IL-31 produced in CHO cells (canine)
[4] = target: Recombinant canine IL-31 produced in CHO cells (canine); test: SPR (Biacore), IL-31 amine-coupled to the chip, mAb in solution, 1:1 fit; Biacore affinity (SPR); weak, about 0.5 uM; not active in the DH82 pSTAT assay

Sequence of Recombinant canine IL-31 produced in CHO cells (canine) (chain, as listed by the source limits assumed, form in doubt): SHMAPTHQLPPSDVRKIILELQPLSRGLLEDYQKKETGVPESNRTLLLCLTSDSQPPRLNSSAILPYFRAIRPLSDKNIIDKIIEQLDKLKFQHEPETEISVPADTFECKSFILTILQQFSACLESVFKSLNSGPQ

| Kd [1] | DH82 pSTAT Assay, Co-incubation IC50 [2] | DH82 pSTAT Assay, Pre-treatment IC50 [2] | IC50 (inhibition of canine IL-31 induced pSTAT signaling in canine DH82 monocytes) [3] | Kd [4] | Binder |
| --- | --- | --- | --- | --- | --- |
| 7.24 pM | 1.76 µg/ml | 3.46 µg/ml |  |  | B1 |
| 0.515 pM | 1.92 µg/ml | 1.33 µg/ml |  |  | B2 |
| 0.893 pM | 1.61 µg/ml | 2.28 µg/ml |  |  | B3 |
| 0.268 pM | 1.48 µg/ml | 1.57 µg/ml |  |  | B4 |
| 923 pM |  |  |  |  | B5 |
| 29.1 pM | 2.42 µg/ml | 2.25 µg/ml | 2.29 µg/mL |  | B6 |
|  |  |  | 2.41 µg/mL |  | B7 |
| 1.01 pM | 1.73 µg/ml | 2.28 µg/ml |  |  | B8 |
| 4.65 pM | 1.28 µg/ml | 1.08 µg/ml |  |  | B9 |
| 4.97 pM | 2.67 µg/ml | 3.35 µg/ml |  |  | B10 |
|  |  |  |  | 506000 pM | B11 |
| 5.16 pM | 5.49 µg/ml | 5.18 µg/ml |  |  | B12 |
| 147 pM | 2.7 µg/ml | 5.31 µg/ml |  |  | B13 |

Reference: patent US20140315251A1
